The values that follow are results of earlier work, collected in paper PMC8165686.

The target in the data set is Spike RBD (SARS-CoV-2) (UniProt P0DTC2).

One may read the Kd as the equilibrium constant for the complex coming apart. With “ACE2 23-mer peptide 21-43 (from UniProt Q9BYF1)”, the Kd is 0.047 µM.
